Measurements: article PMC6755090

Experiments:
Escherichia coli σ^70 = biological target: T1, Escherichia coli σ^70 (Escherichia coli, UniProt P00579 1-613); assay: cryo-EM structure; σ appropriation complex assembled from σ^70, AsiA, RNAP core enzyme, MotA and a P_(uvsX) DNA scaffold, purified on Superose 6 in 10 mM HEPES pH 7.5, 50 mM KCl; 8 mM CHAPSO added; 3.79 Å; details: both partners purified
T1 construct: RNA polymerase sigma factor σ^70 (RpoD) of Escherichia coli; holds σR2, σR3, σR3.2 and σR4 (helices S1-S5); also called principle σ factor

AsiA = biological target: T2, AsiA (bacteriophage T4, UniProt P32267 1-90); assay: fluorescence polarization; comparable affinity to the promoter scaffold; KD only in figure; FP: 10 mM HEPES pH 7.5, 50 mM KCl, 25°C, 0.1 μM DNA, 0-100 μM AsiA; EMSA: 7 mM Tris-HCl and 50 mM Tris-Ac pH 7.9, 0.19 M KGlu, 5 mM MgAc2, 50 mM K-phosphate pH; details: protein: recombinant; tags: N-His6; label: 5' 6-FAM
T2 sequence: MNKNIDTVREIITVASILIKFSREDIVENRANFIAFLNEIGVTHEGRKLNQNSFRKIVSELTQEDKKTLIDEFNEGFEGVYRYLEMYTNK

T1 sequence (P00579 whole entry): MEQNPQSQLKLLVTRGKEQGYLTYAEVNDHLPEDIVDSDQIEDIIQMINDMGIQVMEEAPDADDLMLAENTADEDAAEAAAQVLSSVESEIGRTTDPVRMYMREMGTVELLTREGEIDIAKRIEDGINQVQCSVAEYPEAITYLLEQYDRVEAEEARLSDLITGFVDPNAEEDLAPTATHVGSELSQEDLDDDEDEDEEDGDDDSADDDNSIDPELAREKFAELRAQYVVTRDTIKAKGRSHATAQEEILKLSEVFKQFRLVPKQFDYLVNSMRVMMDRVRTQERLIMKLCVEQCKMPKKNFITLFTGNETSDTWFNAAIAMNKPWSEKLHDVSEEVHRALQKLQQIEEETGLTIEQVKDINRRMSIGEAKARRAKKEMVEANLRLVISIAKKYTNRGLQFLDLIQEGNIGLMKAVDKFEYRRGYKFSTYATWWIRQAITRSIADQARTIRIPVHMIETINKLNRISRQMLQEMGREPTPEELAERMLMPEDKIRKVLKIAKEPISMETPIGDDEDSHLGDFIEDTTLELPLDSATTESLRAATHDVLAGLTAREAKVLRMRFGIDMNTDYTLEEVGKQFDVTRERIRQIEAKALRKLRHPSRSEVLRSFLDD

B1: MotA (natural protein, bacteriophage T4, UniProt P22915 1-211, looked up)
chain: MSKVTYIIKASNDVLNEKTATILITIAKKDFITAAEVREVHPDLGNAVVNSNIGVLIKKGLVEKSGDGLIITGEAQDIISNAATLYAQENAPELLKKRATRKAREITSDMEEDKDLMLKLLDKNGFVLKKVEIYRSNYLAILEKRTNGIRNFEINNNGNMRIFGYKMMEHHIQKFTDIGMSCKIAKNGNVYLDIKRSAENIEAVITVASEL
notes: synthetic gene in pET21a; source: E. coli BL21(DE3), plasmid pET21a-MotA, purified (HiTrap Heparin, Mono S)
**Q.** Does B1 bind (Escherichia coli σ^70)?
**A.** Result: binds

B2: irrelevant DNA scaffold (FP) (dsDNA)
DNA 1: GCAAATGAGCAACA
DNA 2: TGTTGCTCATTTGC
**Q.** Does B2 bind (AsiA)?
**A.** Result: binds

B3: AsiA (natural protein, bacteriophage T4)
chain: T2 sequence
notes: AsiA, anti-sigma 70 protein of bacteriophage T4; synthetic gene in pET28a; A6 is the C-terminal helix; also called AisA; N-hexahistidine-tagged AsiA; source: E. coli BL21(DE3), plasmid pET28a-NH-AsiA, purified (Ni-NTA, Mono Q)
**Q.** Does B3 bind (Escherichia coli σ^70)?
**A.** Result: binds
